Substrate in data set [1]: Nc1ncnc2c1ncn2[C@@H]1O[C@H](COP(=O)(O)O)[C@@H](O)[C@@H]1O
In words: HPLC of Ara-A formation, Lineweaver-Burk. The settings on record: 50 mM HEPES pH 7.5, 1 mM MgCl2, 0.01-1.5 mM substrate, 0.2 mg/mL PenF. It is filed as biochemical, Streptomyces antibioticus. The text has this:
HPLC of Ara-A formation, Lineweaver-Burk on PenF

Substrate in data set [2]: Nc1ncnc2c1ncn2[C@H]1C[C@H](O)[C@@H](COP(=O)(O)O)O1
The data set is described as follows: HPLC of deoxyadenosine formation, Lineweaver-Burk. It is filed as biochemical, Streptomyces antibioticus. The settings on record: 50 mM HEPES pH 7.5, 1 mM MgCl2, 0.2-2.5 mM substrate, 0.2 mg/mL PenF. The text has this:
HPLC of deoxyadenosine formation, Lineweaver-Burk on PenF

B1: PenF (Streptomyces antibioticus) (protein)
chain: MVTLPDRVRAHVLADFATADPAHDIHHLDRVAALAGDIAVLLGADPQTAQVAAYVHDYHRVEEARQGRRPIRPEEARSAVLDVLERSEVPEKLHGTILRAVELTGRYRFGGDELDGEDLIAAAVHDADNLDAMGAVGVGRAFAFGGLLGEPLWEPAAGLKELYTEGETSSVLAHLYEKLVHLEKDMLTEPARRLAAERAFQLHRFAAEFRSQWGEEDVVSHSGGTRVHWDPLTRFLAVTQPEPDGITVTHIGFRGQAMLAFDEQGQPVGVDLLGAPEALTHCVPHAQRSRAWVADAAGGWLLDAEADVVWISISEAPVRRRLTAVGDIEVQLREGKLATLRMHLTEEAPVSVGGEGAP
notes: codon-optimized penF in pET28a (NdeI/XhoI), C-terminal His6 tag, E. coli BL21(DE3), Ni-NTA; about 42 kDa by MALDI-TOF (45 kDa SDS-PAGE)
In the case of B1, in data set [1], the Km was 71.5 µM, the Vmax was found to be 170 µM/min, the kcat was found to be 0.565 s⁻¹ and the kcat/Km worked out at 7900 M⁻¹ s⁻¹. Further, in data set [2], the Km worked out at 344 µM, the Vmax was 11.9 µM/min, the kcat amounted to 0.04 s⁻¹ and the kcat/Km was found to be 117 M⁻¹ s⁻¹.

(Values after publication PMC11592144, “Biochemical Characterization of an Arabinoside Monophosphate Specific 5′-Nucleotidase-like Enzyme from Streptomyces antibioticus” (Biomolecules, 2024).)
